These results are taken from article PMC10767699, “Custom Design of a Humidifier Chamber for InMeso Crystallization” (Crystal Growth & Design, 2023).

This data set concerns the molecule itself. The data set is described as follows: crystal structure; in meso (monoolein mesophase) crystallization of apo GltTk, 21 °C; space groups H3_(2) and P6_(3)22; one protomer in the asymmetric unit, trimer generated by crystal symmetry.

B1: transmembrane aspartate transporter GltTk from Thermococcus kodakarensis (natural protein)
chain: MGKSLLRRYLDYPVLWKILWGLVLGAVFGLIAGHFGYAGAVKTYIKPFGDLFVRLLKMLVMPIVLASLVVGAASISPARLGRVGVKIVVYYLATSAMAVFFGLIVGRLFNVGANVNLGSGTGKAIEAQPPSLVQTLLNIVPTNPFASLAKGEVLPVIFFAIILGIAITYLMNRNEERVRKSAETLLRVFDGLAEAMYLIVGGVMQYAPIGVFALIAYVMAEQGVRVVGPLAKVVGAVYTGLFLQIVITYFILLKVFGIDPIKFIRKAKDAMITAFVTRSSSGTLPVTMRVAEEEMGVDKGIFSFTLPLGATINMDGTALYQGVTVLFVANAIGHPLTLGQQLVVVLTAVLASIGTAGVPGAGAIMLAMVLQSVGLDLTPGSPVALAYAMILGIDAILDMGRTMVNVTGDLAGTVIVAKTEKELDESKWISHHHHHHHH
As for B1, the “stoichiometry N” value is 3.
